Changes are numbered by the printed parent chain. Some results are limits rather than exact numbers.

Experiment [1] concerns the target T1, Biotin PSGL-1(42-62) L49A peptide (C-terminal Lys-biotin).
T1 peptide: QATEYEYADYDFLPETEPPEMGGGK
The experiment in a line: ELISA, streptavidin-bound Ala peptide.

In experiment [2] the target is T2, Biotin PSGL-1(42-62) Y51A peptide (C-terminal Lys-biotin).
T2 peptide: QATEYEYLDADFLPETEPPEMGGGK
The experiment in a line: ELISA, streptavidin-bound Ala peptide. A general note: In an ELISA, binding on a coated surface is turned into a signal by an enzyme label.

Experiment [3] concerns the target T3, Biotin PSGL-1(42-62) L54A peptide (C-terminal Lys-biotin).
T3 peptide: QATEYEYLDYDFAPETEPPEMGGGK
Description: ELISA, streptavidin-bound Ala peptide.

Experiment [4] concerns the target T4, Biotin PSGL-1(42-62) F53A peptide (C-terminal Lys-biotin).
T4 peptide: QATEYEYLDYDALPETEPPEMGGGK
The experiment in a line: ELISA, streptavidin-bound Ala peptide.

Another experiment addresses T5, T57A (C-terminal Lys-biotin).
T5 construct: alanine-scan peptide; also called Biotin PSGL-1(42-62) T57A peptide; 57T
T5 peptide: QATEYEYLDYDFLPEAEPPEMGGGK
The experiment in a line: alanine-scan ELISA, streptavidin-immobilized biotin peptide.

The next experiment concerns the target T6, E61A (C-terminal Lys-biotin).
T6 construct: alanine-scan peptide; also called Biotin PSGL-1(42-62) E61A peptide; 61E
T6 peptide: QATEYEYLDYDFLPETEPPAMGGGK
The experiment is described as above.

For another experiment, the target named is T7, E58A (C-terminal Lys-biotin).
T7 construct: alanine-scan peptide; also called Biotin PSGL-1(42-62) E58A peptide; 58E
T7 peptide: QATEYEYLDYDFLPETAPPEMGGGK
The description is as above.

The target of experiment [5] is T8, Biotin PSGL-1(42-62) Y46A peptide (C-terminal Lys-biotin).
T8 peptide: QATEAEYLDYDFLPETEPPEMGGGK
Described as above.

In a further experiment the target is T9, P60A (C-terminal Lys-biotin).
T9 construct: alanine-scan peptide; also called Biotin PSGL-1(42-62) P60A peptide; 60P
T9 peptide: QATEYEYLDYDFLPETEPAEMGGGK
The description is as above.

The target in the next experiment is T10, Q42A (C-terminal Lys-biotin).
T10 construct: alanine-scan peptide; also called Biotin PSGL-1(42-62) Q42A peptide; 42Q
T10 peptide: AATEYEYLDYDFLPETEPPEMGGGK
The experiment is described as above.

A further experiment addresses T11, E47A (C-terminal Lys-biotin).
T11 construct: alanine-scan peptide; also called Biotin PSGL-1(42-62) E47A peptide; 47E
T11 peptide: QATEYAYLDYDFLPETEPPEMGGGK
Described as above.

In experiment [6] the target is T2, Biotin PSGL-1(42-62) Y51A peptide. The experiment is described as above.
The next experiment deals with T12, T44A (C-terminal Lys-biotin).
T12 construct: alanine-scan peptide; also called Biotin PSGL-1(42-62) T44A peptide; 44T
T12 peptide: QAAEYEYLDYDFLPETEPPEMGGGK
The experiment is described as above.

The next experiment concerns the target T13, M62A (C-terminal Lys-biotin).
T13 construct: alanine-scan peptide; also called Biotin PSGL-1(42-62) M62A peptide; 62M
T13 peptide: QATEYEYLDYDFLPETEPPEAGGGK
Described as above.

Experiment [7] addresses T14, Biotin PSGL-1(42-62) E45A peptide (C-terminal Lys-biotin).
T14 peptide: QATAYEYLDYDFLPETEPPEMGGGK
The description is as above.

The next experiment has as its target T15, P59A (C-terminal Lys-biotin).
T15 construct: alanine-scan peptide; also called Biotin PSGL-1(42-62) P59A peptide; 59P
T15 peptide: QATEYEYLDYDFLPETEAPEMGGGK
The experiment is described as above.

The target of a further experiment is T16, Y48A (C-terminal Lys-biotin).
T16 construct: alanine-scan peptide; also called Biotin PSGL-1(42-62) Y48A peptide; 48Y
T16 peptide: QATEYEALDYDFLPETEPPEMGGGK
The description is as above.

Experiment [8] concerns the target T17, PSGL-1 endogenously expressed on HL-60 cells (UniProt Q14242 42-412).
T17 construct: whole, on cells
T17 sequence (looked up): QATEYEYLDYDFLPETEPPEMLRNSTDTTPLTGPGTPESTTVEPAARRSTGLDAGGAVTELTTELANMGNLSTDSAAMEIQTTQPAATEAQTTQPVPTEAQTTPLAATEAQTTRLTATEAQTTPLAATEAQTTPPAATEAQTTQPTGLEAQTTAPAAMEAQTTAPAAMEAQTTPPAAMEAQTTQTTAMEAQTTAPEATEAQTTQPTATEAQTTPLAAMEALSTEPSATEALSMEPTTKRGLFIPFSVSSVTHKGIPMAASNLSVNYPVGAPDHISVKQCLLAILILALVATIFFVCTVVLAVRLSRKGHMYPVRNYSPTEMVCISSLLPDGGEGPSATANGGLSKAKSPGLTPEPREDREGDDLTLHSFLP
Description: flow cytometry on HL-60 cells. The method, then: A typical flow cytometry assay was performed by resuspending HL-60 cells in FACS buffer (5% FBS and 0.05% Sodium Azide in PBS, pH 7.2) on ice, pelleting cells by centrifugation at 500×g for 3 min, washing cells with FACS buffer, and then blocking Fc receptors on the cells with Fc block (human TruStain FcX™, BioLegend Cat. #422302) on ice for 10 min. After washing, 50,000 cells/50 ul in FACS buffer was added to each well of a 96-well round bottomed plate (Costar, Cat. #3797), and 50 ul of serially diluted (0.06 nM-1.0 uM) test or isotype control antibody was added into duplicate wells. The plate was covered and incubated on ice for 1 h. After washing, Phycoerythrin (PE) conjugated anti-human IgG secondary antibody (Abcam; Cat. #ab99825) was added to each well and the plate incubated in the dark on ice for 30 min. After washing, the cells were fixed (1% paraformaldhyde).
(In general: A flow cytometer gives signals particle by particle.)

The target in experiment [9] is T18, Biotin PSGL-1(42-62) peptide, unmodified (human, C-terminal Lys-biotin).
T18 construct: Residues 42-62 followed by GGGK-biotin; also called WT; wild-type
T18 peptide: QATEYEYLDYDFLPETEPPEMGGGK
Description: ELISA, plate-bound peptide.

B1: 16L15 (antibody, V domains shown)
VH: DVKLVESGGGLVKLGGSLKLSCAASGFTFSSYYMSWVRQTPEKRLEWVATISNGGGSTYYPDSVKDRFTISRDNAKNTLYLQMSSLNSEDTAVYYCAKPLYYSNPWFAYWGQGTLVTVSA
VL: DVLLTQTPLSLPVSLGDQASISCRSSQSIVHSNGNTYLEWYLQKPGQSPKLLIYKVSNRFSGVPDRFSGSGSGTDFTLKISRVEAEDLGVYYCFQGSHVPRTFGGGTKLEIK
notes: From mouse immunisation; only variable domains given
In the case of B1, the results for the EC50 in experiment [1] and in experiment [2] were 3.43 nM and 8.83 nM, respectively.

B2: 9F9 (antibody, V domains shown)
VH: EVQLVETGGGLVQPKGSLKLSCAASGFTFNTNAMNWVRQAPGKGLEWVARIRSKSNNYATYYADSVKDRFTISRDDTQSMIYLQMNNLKTEDTGMYYCVRGGSYWYFDVWGAGTTVTVSS
VL: B1 VL with L4M, H31N, R101W
notes: Control anti-PSGL-1 mAb, recombinant; only variable domains given; also called 9F6
Regarding B2, the values for the EC50 in experiment [2] and in experiment [3] were 1.72 nM and 2.31 nM, respectively.

B3: 18F02 (antibody, V domains shown)
VH: QVQLQQPGAELVKPGASVKLSCKASGYTFTSYWMHWVKQRPGQGLEWIGMIHPNSGRTNYNEKFKSKATLTVDKSSSTAYMQLSSLTSEDSAVYYCARSDYWGQGTTLTVSS
VL: DIVMTQAAFSNPVTLGTSASISCRSSKSLLHSDGITYLYWFLQRPGQSPQLLIYRMSNLASGVPDRFSGSGSGTDFTLRISRVEAEDVGVYYCAQMLEFPRTFGGGTKLEIK
notes: as for B1
B3: the EC50 (as a rule, the concentration at which the effect is half-maximal) in [4] is 7.1 nM. For the same molecule, the binding result (in the experiment with T57A; in the experiment with E61A; with E58A; in experiment [5]; with P60A; with Q42A) was “binds” throughout. For the same molecule, the binding result (in the experiment with E47A; in [6]; with T44A; in the experiment with M62A; in [7]; with P59A) was “binds” each time. Further, the binding result with Y48A is listed as “binds”.

B4: 19L04 (antibody, IgG4, V domains shown)
VH: QIQLVQSGPELKKPGETVKISCKASGYTFTTYGMSWVKQAPGKGLKWMGWINTYSGVPTYADDFKGRFAFSLETSASTAYLQINNLKIEDTATYFCARHYYGSHYFDYWGQGTTLTVSS
VL: DIMMTQSPSSLAMSVGQKVTLRCKSSQSLLNSSNQKNYLAWYQQKPGQSPKLLVYFASTRESGVPVRFIGSGSGTDFTLTISSMQAEDLADYFCQQHYFSPLTFGAGTKLELK
notes: as for B1
For B4, a half-maximal effect in experiment [8] (EC50) was put at 2 nM.

B5: 43B6 (antibody, V domains shown)
VH: EVQLQQSGPDLVKPGALVKISCKASGYSFTAYYIHWVKQSHGKSLEWIGRVNPNTGGTSYNPKFKGKAILNVDKSSSTAYMELRSLTSEDSAVYYCARSGSPYYRYDDWGQGTTLTVSS
VL: ENVLTQSPAIMSASPGEKVTMTCRASSTVNSTYLHWFQQKSGASPKLWIYGSSNLASGVPARFSGSGSGTSYSLTISSVEAEDAATYYCQQYSGYPLTFGAGTTLELK
notes: Control anti-PSGL-1 mAb, recombinant; only variable domains given; also called 43B3
As for B5, in experiment [1], the response was half-maximal at 2.63 nM (EC50). Also, the binding result in [3] is “no binding”; in the experiment with T57A, “binds”; with E61A, “binds”; with E58A, “binds”; in [5], “binds”; with P60A it was “binds”. Also, the binding result (with Q42A; with E47A; in experiment [6]; with T44A; with M62A; in experiment [7]) was “binds” each time. In addition, the binding result in the experiment with P59A and in the experiment with Y48A was “binds” throughout.

B6: 10F01 (antibody, IgG4, V domains shown)
VH: EVQLVQSGGGLVQPGGSLRLSCAASGFTFSSYAMSWVRQAPGKGLEWVSALRGGDGGTYHADSVKGRFTISGDSSKNTLYLQMNSLRAEDTAVYYCARRMVGAAYAFDIWGQGTMVTVSS
VL: LPVLTQPHSVSESPGKTVTISCTRSSGSIADNFVQWYRQRPGSAPTTVIYEGDQRPSGVPGRFSGSIDSSSNSASLTISGLQTDDEADYYCQSFDSYNRRTHVVFGGGTKLTVL
For B6, the “fold weaker binding than to sulfotyrosine PSGL-1 42-62” value in [9] is more than 500 fold.

B7: 20I15 (antibody, V domains shown)
VH: EVKLVESGGGLVQPGGSLSLSCAASGFTFTDYYMSWVRQPPGKALEWLGFIRNKANGYTTEYSASVKGRFTISRDNSQSILYLQMNALRAEDSATYYCARTYLRRGYFDVWGTGTTVTVSS
VL: DIVLTQSPASLAVSLGQRATISCRASKSVSTSGYSYMHWFQQKPGQPPKLLIYLASNLESGVPARFSGSGSGTDFTLNIHPVEEEDAATYYCQHSRELPLTFGAGTKLELK
notes: From mouse immunisation; only variable domains given; also called 20115
For B7, in experiment [9], the “fold weaker binding than to sulfotyrosine PSGL-1 42-62” value is more than 50 fold. The 50% effective concentration (EC50) in experiment [8] was 1.4 nM.

B8: 19I01 (antibody, V domains shown)
VH: EVQLVESGGGLVKPGGSRKLSCAASGFTFSDYGMHWVRQAPEKGLEWVAYISSGSSTIYYADTVKGRFTISRDNAKNTLFLQMTSLRSEDTAMYYCARGVDGYWGQGTTLTVSS
VL: DVVMTQTPLSLPVSLGDQASISCRSSQSLVHSNGNTYLHWYLQKPGQSPKFLIYKVSNRFSGVPDRFSGSGSGTDFTLKISRVEAEDLGVYFCSQTTHVPLTFGAGTKLELK
notes: From mouse immunisation; only variable domains given; also called 19101
Molecule B8 came in with an EC50 in experiment [4] of 2.95 nM.

The record behind these values is US20220396632A1 (VERSEAU THERAPEUTICS, published 2022).
